The subject of the experiment is Glut1 mRNA expression in differentiated 3T3-L1 adipocytes. The experiment is described as follows: Glut1 Taqman assay. The format is cell-based. How it is done:
Differentiated 3T3-L1 adipocytes were used to measure the Glut1 mRNA expression by qPCR method. Overnight serum starved day 10-14 differentiated 3T3-L1 adipocytes were treated with compounds for 6 hrs. Total RNA was extracted from these cells, and Glut1 and GAPDH mRNA expression was measured using a Quantitect Probe RT-PCR kit and running a quantitative real time PCR reaction in a Taqman machine (Applied Biosystems®). The bioactivity of the compounds was determined by a fold change in Glut1 mRNA levels normalized by the GAPDH mRNA levels from each sample. EC50 values as measurements of the potency of the compounds were obtained from the dose response curves in the assay.
3T3-L1 adipocytes were seeded at day 8 in 24-well tissue culture plates (Falcon®, Cat#353047), and incubated in DMEM complete medium (10% FBS, 2 mM L-glutamine, 1% P/S) at 37° C., 5% CO2. […] The medium was aspirated, and then RNA extracted from the cells using the RNeasy mini Kit according to the manufacturer's instructions. RNA was measured at A260 nm using the Spectramax® Plus spectrophotometer.
In general terms: In qPCR the cycle at which signal appears reflects the starting amount.

These results are taken from US8722622B2, “FGF21 conjugates and anti-diabetic uses thereof” (COVX Technologies Ireland, Limited, priority 2010, dated 2014).

Read-outs that look alike come from different tables or passages of the source.

B1: FGF21ΔH: FGF21 with H1 absent (ΔH1), L146, SEQ ID NO:2; control protein (protein, listed as Homo sapiens)
chain: PIPDSSPLLQFGGQVRQRYLYTDDAQQTEAHLEIREDGTVGGAADQSPESLLQLKALKPGVIQILGVKTSRFLCQRPDGALYGSLHFDPEACSFRELLLEDGYNVYQSEAHGLPLHLPGNKSPHRDPAPRGPARFLPLPGLPPAPLEPPGILAPQPPDVGSSDPLSMVGPSQGRSPSYAS
As a reminder, the EC50 is the concentration at which the effect is half-maximal. Consider B1, for which the EC50 by setting is: (3T3-L1 adipocytes, 6 hrs, Taqman quantitative real-time PCR, read-out: Glut1 RNA expression EC50) 3.39 nM; (unconjugated protein, n in brackets, read-out: Glut1 Taqman unconjugated Protein EC50) 2.3 nM. For the setting “6 hrs”, the “Glut1 induction in 3T3-L1 adipocytes” value was “dose-dependent Glut1 induction”.
